Laboratory results as given in the DeepSol protein solubility set.

Assay: soluble on expression in E. coli; label from the status in PepcDB or PDB records

Sequence | soluble on expression in E. coli
MLNPLRALTLGGLLLFSTLGHAAPAAPDALRIGYQKGSVSMVLAKSHQLLEQRYPQTHISWIEFPAGPQMLEALNVGSIDIGSTGDIPPIFAQAAGADLVYIGAEPPKPKAEVILVAQGSPIHNVAELKGKKVAFQKGSSSHNLLLRALQLAGLKFSDIQPVYLAPADARAAFQQGNVDAWAIWDPYYSAALLQGGARVLTDGTDLKQTGSFYLASRPYAERNGAFIEGVLDTFTQADALTHSQRAQSITLLAKTMGLPEAVIASYLDHRPPTAVTPVSAETAARQQQTADLFYENKLVPKKVDIRARIWQPTATQGAKS | not soluble
MTENFAQLFEESLKEIETRPGSIIRGTIVAVNKDNVIVDAGLKSESVISIDQFKNAAGEVEVVVGDEIDVALDATDDGFGETILSREKAKRHEAWQVLEKAYEEKETVIGVINGKVKGGFTVEVSDIRAFLPGSLVDVRPVRDTAHLEGKPLEFKVIKLDQKRNNVVVSRRAVIEAEGSAERDELLESLAEGQEVKGIVKNLTDYGAFVDLGGIDGLLHITDMAWKRVKHPSEIVNVGDEIQVKVLKFDRERTRVSLGMKQLGEDPWVAIANRYPEGSKLSGRVTNLTDYGCFVEIQEGVEGLVHVSEMDWTNKNIHPSKVVNLGDTVEVLVLEIDEERRRISLGLKQCIANPWEEFAKNFNKGDKVSGKIKSITDFGIFIGLDGGIDGLVHLSDISWAGGEEAVRDYKKGDEIDAIVLQVDPERERISLGVKQAEDDPFNMYLADKKKGAIVTGKVTEVDAKGATILLAESVEGYLRVSDISVERIEDASTVLKVGDDVEARFMGVDRKNRTISLSIKAKDQADEREAMDNLNQVEETGLSAMAAAFKNAKNLEHHHHHH | soluble
MSLKQPAVFFDKNVSTIEENNSLLDGQTDVPVLDPHDLLVEVQAVSVNPVDTKLRQTGVASKIKILGYDAFGIVKNTGKDVTRFHAGDRVYYAGTTQRPGSNEKFQAVDERLVGRAPEKLNKSEIAAMPLTSITAYEILVDQLGLRFQNHAADGKNMLVINGAGGVGSVLLQMAAYLGINLSVTAHSSESIEWLKKYSVDKIYDYENIDETLADQKFDYIVFLYDPALYWDIAIKHIKPYGQLVSIVGTNKPLNMGPLKNIAVQFKWEYMFAKSDFNHNILSQGQALDKIAILLDAGILKTTLNKTFDLINAENLRQAYKLVESGRMQGKVVLNGPFDKALKEGHHHHHH | soluble
MGSDKIHHHHHHMKFVIRDLNTKKVMKNAYRITKTKYETSLRVRVPGGLIDPESLAVVSKIASEYGNGQVHITTRQGFEILGINMEDMEEINKIIQPVIEKMNINQSEKNAGYPAAGTRNIAACIGNKVCPKAQYNTTEFAKRIEKAIFPNDLHFKVALTGCPNDCIKARMNDFGIIGMALPIYEKDRCVNCGACVKKCSKISVGALKTENNKVVRDKDKCIGCGECVLNCPTNAWTRDEKKYYRLAIMGRTGKKNPRLAEDFLLWVDEDSIIKIILNTYRYVEKYIDKDAPGGKEHIGYIIDRTGFMEFKKWALEGVELPEITKMYENIYWSGIKYL | not soluble
MPTVPFPILRLPNAILQRSLQQMSPIGLISLSVLSNNMKQIVTMPNNKSRFDGRISTTLPITLHLNVDRNSRHHYVEYAFQFNQSVLRIQDIRGQEPATLTKPGFTDKLWIEHVAEVLFQNKGVILSCDAPFRTYIKELLKNINVTLIAIRSSGFEVWKFFELFPSLEKVTFTEGPIPLSVLSRNLDGLKVNTKDVPLDDALTSNSLSFAMHRNSFTMKEINLFIKQWIRGCNPRLEMFQILFNDIERHLVLENVIFKGINYIEKRNRIVQCQEREEYRIERFDGTEALVWFNPNRFPFLEMTVMMNDDDDKLLV | not soluble
MGEYYHATVNGVVEYGAFVDLSEHVSGLIHESTYSGDPDLAVDDDVIVHLSAVRDNGDLSFEFVDPEEYRTEQRSHAYERTTADAVGLEHHHHHH | soluble
MAHHHHHHMGRLEIRVCGARNVANVQRVGKPDPYVKVKLGNSKKSQIKYKTHVAENCLNPVWNELFKFQVADYDSMQVVFELWNDNVIVDDLLGSYSLSLNGLTRGVVIDTWVLLEGTKGSSSELHLRVLAVDFGRDPGPGDRLTLSLEGDTMMPSTGQTYRPPKNYVPPTQGIVLQSYPPAPLGPPPPVVYSPSAAPRPQVQYGYVTPPQPQRYACGAPPPPPQQPPSQGYGYGAVQAPQNYSYGAPPPPQPMYGAPQLPQCLPYAAGPPPPQMYGPPPPQRRPVQMAYGIPPDM | not soluble
MARGCDLCFPGRKAVVFVTGLCDDSCFYCPVSRAKLGRDVFYVNEVPVASVEEAVAEVLRTGASGASLTGGDPLVALHRTLDVARALKSELGRGFHIHLYTSGRRMTPEVARALWEAGVDEVRIHPTERSLLSRVGMVKRYTGMSVGVEMPIAPGLEELAIEAVKTVEAVGGDFVNLNEMEIVEPNARALLARGYTESGERPFTVRGALEAVLRVLEWAAENSSVPVHFCPASFKDSIQTGNRLRSSAARDAYWYEEPTPHGTLTWGEVRGGSPPPGLGEERGGRIMLPPRADLLETVVRMYGGEAYIVEAHPTPSRTPIVSERRIA | not soluble
MAAAGTLERSFVELSGAERERPRHFREFTVCSIGTANAVAGAVKYSESAGGFYYVESGKLFSVTRNRFIHWKTSGDTLELMEESLDINLLNNAIRLKFQNCSVLPGGVYVSETQNRVIILMLTNQTVHRLLLPHPSRMYRSVSWLSAISFISQITLGVTNVVLERCLLELKEIWILVIPHQAYFDSYRLKLEHHHHHH | not soluble
MADDRGVFPGQWALSGGGVESGERIEEALRREIREELGEQLLLTEITPWTFSDDIRTKTYADGRKEEIYMIYLIFDCVSANREVKINEEFQDYAWVKPEDLVHYDLNVATRKTLRLKGLL | not soluble
SLRSIMTPRGEISWVDAEQSEDEIRRQLLSSPHSLFPVCRGELDEIIGIVRAKEMLVALESGENVAALASASPAIVVPETLDPINLLGVLRRARGSFVIVTNEFGVVQGLVTPLDVLEAIAGEFPDADETPEIVIDGDGWLIKGSTDLHALQQALGLDPLINDDEDIATVAGLVISANGHIPRIGDVVSLPPLHFTVVEANDYRVDLVRAVVTRPPSDEEE | not soluble
MSLKLTRLSLWHIPLTSHETYYMAGGKTCDTTMTTLIRLDTDSGLSGWGEVCPIPHYLPAYADGVAPALTELAPIILGADPLGAEALMERCNAYLLGHDYAKSALDIALWDITARAAGLPLHALLGGRAMADMPLYHSITCVAPDEMARIARDAQAQGMTQFQVKLGADGDWQADVARLSHVREAVGPGPLVYGDWNCGSDSLTASRVGRAVAHLDVMLEQPCRTIQECAAVRDATGLPMKLDETAHDIPSLLDGHRRGCMDAVALKLSKFGGLSATRRARDLCLALGTRMCIEDTWGSDVTTAALLHLAAATPARGLMNTCDLSHYVGPRLAPDGPTRHMGRIAPPEGPGLGITPDMDVLGTPQLILDEGHHHHHH | soluble
MNHPAHHGPTVTPKRRHPDSTGAAPVGIVIATRNRRASLAVTVRNLLALPERPDVLVVDNASTDDTRAMLARDFPQVRVLPLPYNRGALARTHGVRALDTPYVAFSDDDSWWAPGALGAAARHFDDHPRLGLLSARTLVGPGDAADPLNDLLADSPLGTATDLPGTQVLGFLGCAAVARRTAYLDAGGYHPLLFFGGEETLLAYDLAARGWGVTHCPDVIAHHHPHPRPRTGRPAVVRRNALLTAWLRRPLPHALARTRALAADARRDPHARHALRETLTRLPAALRARRPLPPHVERAARLLDGADGPDGPGGAVSLEHHHHHH | soluble
MGSDKIHHHHHHMMLSVSLAALRTFVEVARLRSFKDAAQSLGVTSGAVSQQVKLVENRLDVTLFERSGRNVKLTEQGLRLLGAIHVPFEQIREAVEDFDRRRSARNVVRIVTPIALASHWLVPRMDRFSRRHPDIELHIDTAHAEGVRRQLFDIAIQYGNETAPGVEAKRLPSSKLVVVGSPQLLEGASPIRDPSDCLKFPLLHDHDRLNWPAWFRANGSTHLPAASRKGLSFADESLLVAAAAAAQGLALVRDIHAENLLLHGRLKIAIETSMEPFQSYYLLTPSLVSQRPVVDACKNWILSEMARPVFLDLLSRP | not soluble
MPLNERQLDAFADEHAGQIPFDASPRHLAGPGDARHVTHGLAAAGWATISDPLSAEIVMASPDHRYRLQYDPQSATSAWWRLRATSADNEHGWYAEFGELVPAEVLSSLTDALIAPASPQSDPWQPVTSAGWRPDEAGAAHSPDAMCHIERRPTSEFHERPSWHIEVRDAHDTQYPGPRIWHAYLDEHAPDHLVGAFLSALTDQSPLQRGMFDRTAHYSAVKEPSPLRPQQVVDAHTSRVKVLRAQARAMRRQQTAPAKPPAPTTAVQPAARRLEHHHHHH | not soluble
MDGGADLYKPGEPGAMKKPKSVRQERILTELNQAPSLRVAELARRLDVSTETIRRDLDEMTEQGLLNRTYGGAVRSLSTEPSVTERHTLFVGERERIAKAAVQILKGAQVLMIGSGSTTVHTARRIAVEMKNITVLTHSFGVATVLAINPTIKVVMLPGDYHATEGATVGAHAVSFLNSFYADFTILGASGLGPDGPSDALLECGAVYSAMVSRAARTIVVADHSKHDRLFPARYAPWRDIAHVVTDKAPGEDLTESLDSSGVKLTVCLEHHHHHH | soluble
MVKESIPKEGENIKIQSYKHDGNIHRVWSETTILKGTEHVIIGGNDHTLVTESDGRTWITREPAIVYFHSEYWFNVICMFREDGIYYYCNLSSPFACDEEALKYIDYDLDIKVYPNGKYHLLDEDEYEQHMNQMNYPHDIDIILRRNVDILQQWIEQKKGPFAPDFIKVWKERYKKIRDY | not soluble
MISLIAALAVDRVIGMENAMPWNLPADLAWFKRNTLDKPVIMGRHTWESIGRPLPGRKNIILSSQPGTDDRVTWVKSVDEAIAACGDVPEIMVIGGGRVYEQFLPKAQKLYLTHIDAEVEGDTHFPDYEPDDWESVFSEFHDADAQNSHSYCFEILERR | soluble
MTTPPPRMLPSGDTAITVEFGRDISDESNRRVLALDRKLKQAPIAGILETVPTYRSLLVHYDPETIGFGALSDQLTALAHTSDESETVAKRRWRIPVCYGGEHGIDLEDAAQALNITPDALVARHAAGDYRVAMIGFTPGWSYLSGLDPALAMPRRQAPRLHTPAGTISVGGIQTGIQCLAGPSGWHLLGRTPVRTYQLHREPIFLLEPGDAISFAQIDAKEFAERDDAASHGEVVAELLSALEHHHHHH | soluble
MGSDKIHHHHHHMSKPDRVVLIGVAGDSGCGKSTFLNRLADLFGTELMTVICLDDYHSLDRKGRKEAGVTALDPRANNFDLMYEQVKALKNGETIMKPIYNHETGLIDPPEKIEPNRIIVIEGLHPLYDERVRELLDFSVYLDIDDEVKIAWKIQRDMAERGHSYEDVLASIEARRPDFKAYIEPQRGHADIVIRVMPTQLIPNDTERKVLRVQLIQREGRDGFEPAYLFDEGSTIQWTPCGRKLTCSYPGIRLAYGPDTYYGHEVSVLEVDGQFENLEEMIYVEGHLSKTDTQYYGELTHLLLQHKDYPGSNNGTGLFQVLTGLKMRAAYERLTSQAAPVAASV | not soluble
MGSDKIHHHHHHMFRHFRSRFGTPAWAGVNEDDFLLVRSWFGHGRHHGRDRDKHFGNEMFGRGWGDEHRTRRGDIKFILLELLSEHPSHGYDLIKEMETRYGGFRRLSPGSVYPTLQLLEEGGYLKSAQEGGKRIYTITDEGRKLLAERAQQETSDTPWDTVKSFVTGKPQEFIELRNAATELAAVVVQVARSGNVERINRVRELLEQVKREIYTILAEK | not soluble
